Data taken from patent US20260275324A1, “UNNATURAL AMINO ACID IN CELLULO SYNTHESIS FOR SITE-SPECIFIC PROTEIN MODIFICATION” (The Chinese University of Hong Kong, priority 2023, published 2026).
pKd: −log10 of the molar value. Each block holds one substance with its values, some of them ahead of it.

Key:
[1] = target: CDK4 of MCF-7 cells (endogenous) (UniProt P11802); assay: cell-based or functional assay
[2] = target: GST-CDK4 (Sino Biological) (UniProt P11802); assay: microscale thermophoresis (MST), against linear MBP-P16p as reference
GST-CDK4 (Sino Biological), sequence (P11802 whole entry): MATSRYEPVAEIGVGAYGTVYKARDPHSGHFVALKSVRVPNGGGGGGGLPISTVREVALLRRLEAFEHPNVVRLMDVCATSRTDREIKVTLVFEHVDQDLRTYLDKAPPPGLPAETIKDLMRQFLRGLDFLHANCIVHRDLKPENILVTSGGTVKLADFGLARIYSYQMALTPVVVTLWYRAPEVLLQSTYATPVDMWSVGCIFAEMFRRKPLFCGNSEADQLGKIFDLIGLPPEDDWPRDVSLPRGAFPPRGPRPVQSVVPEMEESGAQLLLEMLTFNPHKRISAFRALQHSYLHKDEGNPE

[3] = target: GST-CDK4 (Sino Biological) (UniProt P11802); assay: microscale thermophoresis (MST); Alexa Fluor 647-labelled MBP-cycP16p at 70 nM, GST-CDK4 titrated from 1.92 µM
α-synuclein = α-synuclein (Homo sapiens, UniProt P37840); conditions: in vitro and in vivo, Liang et al. 2021; cited from earlier work

cycRGD-mCh-cycP16p (bifunctional bicyclic protein), sequence (P42771 83-103): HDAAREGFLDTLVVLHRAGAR

Substance: R9-P16p (linear P16p fused to the poly-arginine cell penetrating sequence; Pepmic) (from UniProt P42771 84-103) (peptide)
- percent of MCF-7 cells arrested at G0/G1 phase (flow cytometry, 15 µM, 24 h) [1]: 60.7%

Substance: SUMOmini2: earlier linear version of SUMO1 peptide (15-55), Liang et al.
- inhibition of α-synuclein aggregation (α-synuclein): effectively inhibit α-synuclein aggregation in vitro and in vivo

Next, values leading:

- fold higher binding affinity compared to its linear counterpart MBP-P16p [2]: 4 fold
- pKd [3]: 7.56
Substance: MBP-cycP16p (cyclized MBP-P16p protein) (from UniProt P0AEX9 27-392; P42771 83-103)

- percent of MCF-7 cells arrested at G0/G1 at 72 h (time course) [1]: 88%
- percent of MCF-7 cells arrested at G0/G1 phase (flow cytometry, 15 µM, 24 h) [1]: 76.7%
Substance: cycRGD-mCh-cycP16p (bifunctional bicyclic protein) (from UniProt P42771 83-103)

- percent of MCF-7 cells arrested at G0/G1 phase (flow cytometry, 15 µM, 24 h) [1]: 46.7%
Substance: cycRGD-mCh-P16p (cycRGD-mCherry bearing linear uncyclized P16p) (from UniProt P42771 83-103)
